{
  "source": "patent CN116819103A",
  "target": "大熊猫TSHβ亚基特异序列多肽片段TSHβ-2 (大熊猫 (giant panda))",
  "sequence (peptide, as listed by the source)": "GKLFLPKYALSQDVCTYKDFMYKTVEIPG",
  "test": "indirect ELISA, peptide TSHβ-2 coated at 2 μg/mL, HRP goat anti-mouse, OD450",
  "data": [
    {"binder": "大熊猫TSHβ单克隆抗体 (杂交瘤细胞株TSHB-B, CCTCC NO: C202283) (antibody, IgG1, V domains shown) VH: EVKLVESGGGLVKPGGSLKLSCAASGFSFSRYAMSWVRHAPENRLEWVAAISRGGNLYYRDSVKGRFTISRDDARNILYLQMSSLRSEDTAMYYCTRDDYDEDWYFDVWGAGTTVTVSS VL: DVLMTQTPLSLPVSLGEQASISCRSSQIIVHSNGNTYLEWYLQKPGQSPKLLIYKVSNRFSGVPDRFSGSGSGTDFTLKISRVEAEDLGVYYCFHGSHIPPTFGGGTKLEIK", "values": [
      {"measurement": "效价 (ELISA titer) (fold dilution)", "value": "> 1e+06"}
    ]}
  ]
}
